T1: RecA (Thermotoga maritima, UniProt P36203 P36203:1-356)
T1 sequence: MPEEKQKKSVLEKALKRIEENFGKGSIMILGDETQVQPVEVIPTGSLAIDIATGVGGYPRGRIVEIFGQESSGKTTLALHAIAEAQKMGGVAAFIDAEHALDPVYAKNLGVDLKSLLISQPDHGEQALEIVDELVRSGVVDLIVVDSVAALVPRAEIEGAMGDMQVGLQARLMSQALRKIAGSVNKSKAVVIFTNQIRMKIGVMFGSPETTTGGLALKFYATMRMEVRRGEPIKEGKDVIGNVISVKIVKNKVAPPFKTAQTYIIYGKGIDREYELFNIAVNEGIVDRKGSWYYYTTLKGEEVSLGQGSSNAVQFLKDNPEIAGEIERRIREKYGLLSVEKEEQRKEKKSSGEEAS


Legend:
RecA [1] = target: T1, RecA; test: EMSA; 75 C, 2 mM Mg acetate; slower assembly than 91-mer; more efficient than E. coli RecA; details: tags: untagged; expressed in E. coli; label: 5' fluorescein
Procedure: To detect recombinase coating of a substrate (nucleoprotein assembly), a gel shift assay with a labeled ssDNA may be employed. For example, 0.1 μM of a fluorescein-tagged 91-mer oligonucleotide (F-[…] […] GAT; SEQ ID NO: 1) was used as a substrate for coating by RecA. The coating buffer for E. coli RecA was 25 mM Tris acetate, pH 7.85, 15 mM potassium glutamate (K-Glu), 5 mM Mg acetate, and 2.5 mM DTT. The coating buffer for Thermotoga RecA was 25 mM Tris acetate, pH 8.0, 15 mM K-Glu, 2 mM Mg acetate, 2.5 mM DTT and 0.1% Triton. The coating buffer also included ATPyS (3 mM), or dATP and ATPγS at a ratio of 10:1 (3 mM and 0.3 mM, respectively). RecA was then added to the coating buffer containing the substrate at a ratio of 4 μM RecA for 10 μM of base. The E. coli RecA coating reaction was incubated for up to 60 minutes at 42° C. and the Thermotoga RecA coating reaction was incubated for up to 60 minutes at 75° C. (or 65° C.), although other temperatures may be employed. The tagged oligonucleotide was visualized and quantified using a FluorImager-SI and ImageQuant Software. […]

RecA [2] = target: T1, RecA; test: EMSA; nucleoprotein assembly; 75 C, 2 mM Mg acetate, ATPgammaS or dATP/ATPgammaS; more efficient than E. coli RecA; details: tags: untagged; expressed in E. coli; label: 5' fluorescein
Procedure: To detect recombinase coating of a substrate (nucleoprotein assembly), a gel shift assay with a labeled ssDNA may be employed. For example, 0.1 μM of a fluorescein-tagged 91-mer oligonucleotide (F-[…] […] GAT; SEQ ID NO: 1) was used as a substrate for coating by RecA. The coating buffer for E. coli RecA was 25 mM Tris acetate, pH 7.85, 15 mM potassium glutamate (K-Glu), 5 mM Mg acetate, and 2.5 mM DTT. The coating buffer for Thermotoga RecA was 25 mM Tris acetate, pH 8.0, 15 mM K-Glu, 2 mM Mg acetate, 2.5 mM DTT and 0.1% Triton. The coating buffer also included ATPyS (3 mM), or dATP and ATPγS at a ratio of 10:1 (3 mM and 0.3 mM, respectively). RecA was then added to the coating buffer containing the substrate at a ratio of 4 μM RecA for 10 μM of base. The E. coli RecA coating reaction was incubated for up to 60 minutes at 42° C. and the Thermotoga RecA coating reaction was incubated for up to 60 minutes at 75° C. (or 65° C.), although other temperatures may be employed. The tagged oligonucleotide was visualized and quantified using a FluorImager-SI and ImageQuant Software.

Binder	binding result (RecA [1])	binding result (RecA [2])
GCTGATTGGCGTTGCCTAATCCAGTCTGGCCCTGC (ssDNA, [5'-F label (position 1)]) [35-mer]	binds	
51-mer (ssDNA, [5'-F label (position 1)]) DNA: CAGTCGTTGCTGATTGGCGTTGCCTAATCCAGTCTGGCCCTGCACGCGCCG	binds	
91-mer (ssDNA, [1 (5'-fluorescein)]) DNA: ACAACAACTGGCGGGCAAACAGTCGTTGCTGATTGGCGTTGCCTAATCCAGTCTGGCCCTGCACGCGCCGTCGCAAATTGTCGCGGCGAT		binds

Reference: US20030228608, “Method to enhance homologous recombination” (Promega Corporation, published 2003)
